# Measurements: patent US20180185504A1 (Regeneron, published 2018)
# B1: H1H6782P (antibody, human IgG1, V domains shown)
# VH: EVQLVESGGGLVQPGRSLRLSCAASGFTFDDYAMHWVRQAPGKGLEWVSGIIWNSGHIGYGDSVKGRFTISRDNAKKSLYLQMNSLRAEDTALYYCARDSGRYQSYFDYWGQGTLVTVSS
# VL: DIQMTQSPSTLSASVGDRVTITCRASHIISSWLAWYQQKPGKAPKVLIFKASSLESGVPSRFSGSGSGTEFTLTISSLQPDDFATYYCQQYNTYSRTFGQGTKVEIK
# notes: human IgG1 Fc (H1H)
# B2: H1H6975N (antibody, human IgG1, V domains shown)
# VH: EVHLVESGGGLVQPGGSLRLSCAASGFTFSSYEMNWVRQTPGKGLEWISHISSRSVIIYYADSVKGRFTISRDNAKNSLFLQMNSLRAEDTAVYFCAGITIFGIPEYWGQGTLVTVSS
# VL: EIVLTQSPATLSLSPGERATLSCRASQSVSSYFAWYQQKPGQAPRLLIYDASSRATGIPTRFSGSGSGTDFTLTISSLEPEDFAVYYCQQRSSWPITFGQGTRLEIK
# notes: also called H2M6975N
# B3: H1H6803P (antibody, human IgG1, V domains shown)
# VH: EVQLVESGGGVVRPGGSLRLSCAASGFKFDDYGMTWVRHVPGKGLEWVSGINWNGGRTGYTDSVKGRFTISRDNAKNSLYLQMNSLRAEDTALYHCAGARRDAFDIWGQGTMVTVSS
# VL: DIQMTQSPSSLSASIGDRVTITCRASQNIIKYLNWYQQNAGKAPKLLIYTASSLQSGVPSRFSGSGSGTDFTLTISSLQPEDFATYYCQQSSSSPYTFGQGTKLEIK
# notes: human IgG1 Fc (H1H)
# B4: H1H6765P (antibody, human IgG1, V domains shown)
# VH: EVQLVESGGGVVRPGGSLRLSCVGSGFSFDDHGMNWVRQGPGKGLEWVSGFNWNGGSTNYAESVKGRFTISRDNARNSLFLQMNSLRAEDTALYYCVRGRSGWFNDAFDVWGPGTMVTVSS
# VL: EIVLTQSPGTLSLSPGERATLSCRASQTINSNYLAWYRQKPGQTPRLLIYGTSSRATGIPDRFSGSGSGTDFSLTISRLEPEDFAVFYCQQYAGLPTFGPGTKVDIK
# notes: human IgG1 Fc (H1H)
# B5: H1H6762P (antibody, human IgG1, V domains shown)
# VH: QVQLVESGGGVVQPGRSLRLSCAASGFTFSHYGMVWVRQPPGKGLEWVALISFDGTTKYYADSVKGRFTISRDNSKNTLYLQMNSLRAEDTAVYFCVGAIAAAAFDLWGRGTLVTVSS
# VL: EIVMTQSPATLSVSPGERATLSCRASQSVSSDLAWYQQKPGQAPRLLIYSASARATGIPARFTGSGSGTDFTLTISSLQSEDFAVYYCQQYNNWPMYTFGQGTKLEIK
# notes: human IgG1 Fc (H1H)
# B6: H1H6800P (antibody, human IgG1, V domains shown)
# VH: EVQLVESGGGLVQPGRSLRLSCAASGFTFDGYAMHWVRQGPGKGLEWVSGISWYSDTLGYADSVKGRFTISRDNAKNSLYLQMNSLRTEDTAFYYCAKISSSGWAFDYWGQGTLVTVSS
# VL: EIVLTQSPGTLSLSPGERATLSCRASHSVSSAYLAWYQQKPGQTPRLLIYGTSSRATGIPDRFSGSGSGTDFTLTISRLEPEDFAVYYCQQYGSSPLFTFGPGTKVDIK
# notes: human IgG1 Fc (H1H)
# B7: H1H6793P (antibody, human IgG1, V domains shown)
# VH: EVQLVESGGGLVQPGGSLRLSCAASGFSFSIYAMSWFRQAPGKGLEWVSAINGRGDGTHYADSVKGRFTISRDNSKTTLYLQMSSLRAEDTAVYYCAKPVMSTNGFDIWGQGTMVTVSS
# VL: DIQMTQSPSTLSASVGDRVTITCRASQSISSWLAWYQLKPGKAPKLLIYKASNLESGVPSRFSGSGSGTEFTLTISSLQPDDFATYYCQQYNIYWTFGQGTKVEIK
# notes: human IgG1 Fc (H1H)
# Target: T1, human PRLR on cells (endogenous on T47D, T47D#11, MCF7); introduced in HEK293/hPRLR/STAT5-Luc, 293/hPRLR, … (human, UniProt P16471 25-622)
# T1 construct: no tag is stated for these lines; also called prolactin receptor
# T1 sequence: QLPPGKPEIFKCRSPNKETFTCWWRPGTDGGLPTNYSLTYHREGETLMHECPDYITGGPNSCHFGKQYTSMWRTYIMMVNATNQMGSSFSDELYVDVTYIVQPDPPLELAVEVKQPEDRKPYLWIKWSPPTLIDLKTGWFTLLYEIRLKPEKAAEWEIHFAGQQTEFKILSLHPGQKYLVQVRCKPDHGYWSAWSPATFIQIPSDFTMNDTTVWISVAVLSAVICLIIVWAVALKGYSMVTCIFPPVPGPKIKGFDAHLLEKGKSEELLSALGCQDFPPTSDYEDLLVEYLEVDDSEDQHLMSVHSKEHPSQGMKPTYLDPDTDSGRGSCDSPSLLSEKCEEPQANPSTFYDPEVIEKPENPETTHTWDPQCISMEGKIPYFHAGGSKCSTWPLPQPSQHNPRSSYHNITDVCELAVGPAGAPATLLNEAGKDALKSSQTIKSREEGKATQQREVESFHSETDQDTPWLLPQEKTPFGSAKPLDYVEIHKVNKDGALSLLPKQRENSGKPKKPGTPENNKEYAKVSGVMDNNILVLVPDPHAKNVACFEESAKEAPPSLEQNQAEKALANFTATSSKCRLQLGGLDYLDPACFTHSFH
# Assay: FACS on T47D cells
row,Binder,FACS Cell Binding (Fold Above Background)
1,B1,43 fold
2,B2,46 fold
3,B3,39 fold
4,B4,40 fold
5,B5,38 fold
6,B6,41 fold
7,B7,43 fold

# Target: T1, human PRLR on cells (endogenous on …)
# Assay: cell-based or functional assay
row,Binder,"% Internalization relative to Control I (T47D cells, imaging)"
1,B1,179%
2,B2,214%
3,B3,190%
4,B4,186%
5,B5,186%
6,B6,198%
7,B7,180%

# Target: T1, human PRLR on cells (endogenous on …)
# Assay: cell-based or functional assay
# Remark: another data set of the same source
Binder,Percent Blocking at 100 nM Antibody (STAT5-Luc reporter),"IC50 of Blocking 5 nM PRL [M] (STAT5-Luc reporter, HEK293/hPRLR/STAT5-Luc cells)"
B1,0%,–
B2,100%,2.41e-10 M
B3,100%,6.27e-10 M
B4,100%,3.3e-11 M
B5,100%,2.19e-11 M
B6,100%,3.55e-10 M
B7,65%,–

# Target: T2, human PRLR construct with an HA tag on HEK293/hPRLR cells (human, UniProt P16471 25-622)
# T2 sequence: T1 sequence
# Assay: FACS on HEK293/hPRLR cells
row,Binder,FACS Cell Binding (Fold Above Background)
1,B1,41 fold
2,B2,38 fold
3,B3,39 fold
4,B4,38 fold
5,B5,36 fold
6,B6,35 fold
7,B7,2 fold

# Target: T3, monkey macaca fascicularis PRLR construct with an HA tag on HEK293/mfPRLR cells (macaca fascicularis, UniProt A0A2K5WXK1 25-619)
# T3 construct: stably transfected into HEK293
# T3 sequence: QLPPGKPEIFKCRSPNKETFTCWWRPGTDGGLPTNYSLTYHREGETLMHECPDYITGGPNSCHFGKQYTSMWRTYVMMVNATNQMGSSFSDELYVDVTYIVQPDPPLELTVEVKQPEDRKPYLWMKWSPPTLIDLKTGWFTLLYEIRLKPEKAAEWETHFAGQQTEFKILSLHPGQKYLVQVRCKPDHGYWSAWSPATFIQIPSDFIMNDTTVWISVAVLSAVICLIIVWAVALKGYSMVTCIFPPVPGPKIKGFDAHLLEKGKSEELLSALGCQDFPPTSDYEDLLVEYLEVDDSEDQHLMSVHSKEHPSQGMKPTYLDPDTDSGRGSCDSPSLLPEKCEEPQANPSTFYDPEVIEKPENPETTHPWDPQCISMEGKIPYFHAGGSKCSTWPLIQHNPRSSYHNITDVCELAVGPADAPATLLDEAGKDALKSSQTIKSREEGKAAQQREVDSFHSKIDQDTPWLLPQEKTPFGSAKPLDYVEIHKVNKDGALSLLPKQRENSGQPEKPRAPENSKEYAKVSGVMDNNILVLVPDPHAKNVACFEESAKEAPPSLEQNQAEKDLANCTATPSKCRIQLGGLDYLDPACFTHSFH
# Assay: FACS on HEK293/mfPRLR cells
row,Binder,FACS Cell Binding (Fold Above Background)
1,B1,32 fold
2,B2,29 fold
3,B3,28 fold
4,B4,27 fold
5,B5,26 fold
6,B6,29 fold
7,B7,32 fold

# Target: T4, hPRLR.mFc (soluble dimeric human PRLR) (human)
# T4 construct: dimeric PRLR construct
# T4 chain: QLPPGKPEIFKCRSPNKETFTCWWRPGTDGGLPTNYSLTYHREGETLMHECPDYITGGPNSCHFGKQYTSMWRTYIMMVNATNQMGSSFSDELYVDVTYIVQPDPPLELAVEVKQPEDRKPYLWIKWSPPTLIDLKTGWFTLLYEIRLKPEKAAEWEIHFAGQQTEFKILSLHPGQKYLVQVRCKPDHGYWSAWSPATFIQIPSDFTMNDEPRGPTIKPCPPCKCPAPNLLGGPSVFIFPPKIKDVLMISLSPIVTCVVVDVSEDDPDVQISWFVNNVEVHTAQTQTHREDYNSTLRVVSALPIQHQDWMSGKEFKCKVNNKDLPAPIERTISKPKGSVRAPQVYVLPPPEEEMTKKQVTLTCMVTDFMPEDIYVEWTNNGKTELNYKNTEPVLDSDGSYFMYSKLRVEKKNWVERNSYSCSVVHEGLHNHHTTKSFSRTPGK
# Assay: SPR (Biacore), antibody capture, 37 C
# Procedure: Measurements were conducted on a T200 Biacore instrument. Kinetic association (kₐ) and dissociation (kd) rate constants were determined by processing and fitting the data to a 1:1 binding model using Scrubber 2.0 curve fitting software.
Binder,Kd,T 1/2,koff,kon
B1,0.217 nM,1.48 h,0.00013 s⁻¹,598000 M⁻¹ s⁻¹
B2,0.184 nM,2.72 h,7.09e-05 s⁻¹,386000 M⁻¹ s⁻¹
B3,0.461 nM,3.1 h,6.2e-05 s⁻¹,134000 M⁻¹ s⁻¹
B4,0.128 nM,1.87 h,0.000103 s⁻¹,801000 M⁻¹ s⁻¹
B5,0.128 nM,1.87 h,0.000103 s⁻¹,801000 M⁻¹ s⁻¹
B6,0.229 nM,1.32 h,0.000147 s⁻¹,644000 M⁻¹ s⁻¹
B7,0.347 nM,1.35 h,0.000142 s⁻¹,410000 M⁻¹ s⁻¹

# Target: T1, human PRLR on cells (endogenous on …)
# Assay: imaging of alexa488 intensity on T47D cells
# Procedure: Briefly, 20,000 T47D cells were seeded in collagen coated 96 well plates. […] Cells were then incubated with alexa488 conjugated anti-hFc Fab secondary antibodies for 30 minutes on ice followed by two additional PBS washes. Antibodies were allowed to internalize for 1 h at 37° C. in internalization buffer (PBS+2% FBS) or remained at 4° C. Cells were fixed in 4% formaldehyde, nuclei were stained with DRAQ5 (Cell signaling), and images were acquired on the ImageXpress micro XL (Molecular Devices). Whole cell alexa488 intensity at 37° C. (Binding) and the alexa488 intensity in the intracellular vesicles at 37° C. (Internalization) were determined via Columbus image analysis software (PerkinElmer).
row,Binder,% Total Binding relative to Control I
1,B1,210%
2,B2,226%
3,B3,206%
4,B4,191%
5,B5,177%
6,B6,187%
7,B7,178%
